B1: Eukaryotic initiation factor 4F subunit p150 (Saccharomyces cerevisiae), P39935 (parent)
chain: MTDETAHPTQSASKQESAALKQTGDDQQESQQQRGYTNYNNGSNYTQKKPYNSNRPHQQRGGKFGPNRYNNRGNYNGGGSFRGGHMGANSSNVPWTGYYNNYPVYYQPQQMAAAGSAPANPIPVEEKSPVPTKIEITTKSGEHLDLKEQHKAKLQSQERSTVSPQPESKLKETSDSTSTSTPTPTPSTNDSKASSEENISEAEKTRRNFIEQVKLRKAALEKKRKEQLEGSSGNNNIPMKTTPENVEEKGSDKPEVTEKTKPAEEKSAEPEVKQETPAEEGEQGEKGQIKEESTPKVLTFAERLKLKKQQKEREEKTEGKENKEVPVQEETKSAIESAPVPPSEQVKEETEVAETEQSNIDESATTPAIPTKSDEAEAEVEAEAGDAGTKIGLEAEIETTTDETDDGTNTVSHILNVLKDATPIEDVFSFNYPEGIEGPDIKYKKEHVKYTYGPTFLLQFKDKLNVKADAEWVQSTASKIVIPPGMGRGNRSRDSGRFGNNSSRGHDFRNTSVRNMDDRANSRTSSKRRSKRMNDDRRSNRSYTSRRDRERGSYRNEEKREDDKPKEEVAPLVPSANRWVPKFKSKKTEKKLAPDGKTELLDKDEVERKMKSLLNKLTLEMFDAISSEILAIANISVWETNGETLKAVIEQIFLKACDEPHWSSMYAQLCGKVVKELNPDITDETNEGKTGPKLVLHYLVARCHAEFDKGWTDKLPTNEDGTPLEPEMMSEEYYAAASAKRRGLGLVRFIGFLYRLNLLTGKMMFECFRRLMKDLTDSPSEETLESVVELLNTVGEQFETDSFRTGQATLEGSQLLDSLFGILDNIIQTAKISSRIKFKLIDIKELRHDKNWNSDKKDNGPKTIQQIHEEEERQRQLKNNSRSNSRRTNNSSNRHSFRRDAPPASKDSFITTRTYSQRNSQRAPPPKEEPAAPTSTATNMFSALMGESDDEE
partner: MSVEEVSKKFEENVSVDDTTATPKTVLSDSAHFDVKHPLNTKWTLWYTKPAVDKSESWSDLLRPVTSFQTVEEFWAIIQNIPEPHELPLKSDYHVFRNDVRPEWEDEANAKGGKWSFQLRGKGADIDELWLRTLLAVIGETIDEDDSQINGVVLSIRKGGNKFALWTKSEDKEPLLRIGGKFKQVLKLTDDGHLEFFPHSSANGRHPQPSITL

Variants of: B1
Details: with if4e_yeast CDC33, P07260

Effect of a mutation on the interaction, decreasing interaction:
L457A;L458A
E425D
K444A

— IntAct's records for PubMed 10409688
